# Data published in patent US20230235013A1 (MABSOLVE, published 2023).
# Numbering of substitutions follows the chain as printed. Numbers in names are those of the source.
# B1: anti-CD20 human IgG1 L234E/L235D/G236R (antibody)
# heavy: QVQLQQPGAELVKPGASVKMSCKASGYTFTSYNMHWVKQTPGRGLEWIGAIYPGNGDTSYNQKFKGKATLTADKSSSTAYMQLSSLTSEDSAVYYCARSTYYGGDWYFNVWGAGTTVTVSSASTKGPSVFPLAPSSKSTSGGTAALGCLVKDYFPEPVTVSWNSGALTSGVHTFPAVLQSSGLYSLSSVVTVPSSSLGTQTYICNVNHKPSNTKVDKKVEPKSCDKTHTCPPCPAPEEDRGPSVFLFPPKPKDTLMISRTPEVTCVVVDVSHEDPEVKFNWYVDGVEVHNAKTKPREEQYNSTYRVVSVLTVLHQDWLNGKEYKCKVSNKALPAPIEKTISKAKGQPREPQVYTLPPSRDELTKNQVSLTCLVKGFYPSDIAVEWESNGQPENNYKTTPPVLDSDGSFFLYSKLTVDKSRWQQGNVFSCSVMHEALHNHYTQKSLSLSPGK
# light: QIVLSQSPAILSASPGEKVTMTCRASSSVSYIHWFQQKPGSSPKPWIYATSNLASGVPVRFSGSGSGTSYSLTISRVEAEDAATYYCQQWTSNPPTFGGGTKLEIKRTVAAPSVFIFPPSDEQLKSGTASVVCLLNNFYPREAKVQWKVDNALQSGNSQESVTEQDSKDSTYSLSSTLTLSKADYEKHKVYACEVTHQGLSSPVTKSFNRGEC
# notes: also called 2-12; 1-33
# B2: anti-CD20 human IgG1 L234R/L235D/G236R (antibody)
# heavy: B1 heavy with E238R
# light: B1 light
# B3: anti-CD20 human IgG1 L234S/L235E/G236R (antibody)
# heavy: B1 heavy with E238S, D239E
# light: B1 light
# notes: also called 2-46
# B4: anti-CD20 human IgG1 L234Q/L235R/G236R (antibody)
# heavy: B1 heavy with E238Q, D239R
# light: B1 light
# notes: also called 2-32
# B5: anti-CD20 human IgG1 L234S/G236R (antibody)
# heavy: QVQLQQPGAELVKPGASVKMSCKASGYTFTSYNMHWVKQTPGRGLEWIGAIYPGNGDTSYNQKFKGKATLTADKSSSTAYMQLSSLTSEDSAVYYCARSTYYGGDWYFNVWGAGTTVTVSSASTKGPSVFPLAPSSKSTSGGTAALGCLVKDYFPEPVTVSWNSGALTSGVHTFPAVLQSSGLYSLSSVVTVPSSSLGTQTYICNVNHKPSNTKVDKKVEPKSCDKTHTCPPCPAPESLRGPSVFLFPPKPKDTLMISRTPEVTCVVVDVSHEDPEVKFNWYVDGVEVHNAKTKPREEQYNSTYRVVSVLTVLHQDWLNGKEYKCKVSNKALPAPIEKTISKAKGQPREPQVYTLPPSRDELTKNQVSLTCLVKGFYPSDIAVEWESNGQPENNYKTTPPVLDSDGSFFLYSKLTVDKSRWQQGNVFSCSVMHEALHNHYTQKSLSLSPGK
# light: B1 light
# notes: also called 2-50
# B6: anti-CD20 human IgG1 L234G/L235H/G236R (antibody)
# heavy: B1 heavy with E238G, D239H
# light: B1 light
# notes: also called 2-17; 1-51
# B7: anti-CD20 human IgG1 L234K/L235T/G236R (antibody)
# heavy: B1 heavy with E238K, D239T
# light: B1 light
# notes: also called 2-25; 1-90
# B8: anti-CD20 human IgG1 L234T/L235I/G236R (antibody)
# heavy: B1 heavy with E238T, D239I
# light: B1 light
# notes: also called 2-57; 1-157
# B9: anti-CD20 human IgG1 L234T/L235D/G236R (antibody)
# heavy: B1 heavy with E238T
# light: B1 light
# notes: also called 2-55
# B10: anti-CD20 human IgG1 L234G/L235Q/G236R (antibody)
# heavy: B1 heavy with E238G, D239Q
# light: B1 light
# notes: also called 2-18; 1-57
# B11: anti-CD20 human IgG1 L234E/L235I/G236R (antibody)
# heavy: B1 heavy with D239I
# light: B1 light
# notes: also called 2-14; 1-37
# B12: anti-CD20 human IgG1 L234S/L235I/G236R (antibody)
# heavy: B1 heavy with E238S, D239I
# light: B1 light
# notes: also called 2-49
# B13: anti-CD20 human IgG1 L234H/L235I/G236R (antibody)
# heavy: B1 heavy with E238H, D239I
# light: B1 light
# notes: also called 2-20; 1-67
# B14: anti-CD20 human IgG1 L234E/L235V/G236R (antibody)
# heavy: B1 heavy with D239V
# light: B1 light
# notes: also called 2-16; 1-46
# B15: anti-CD20 human IgG1 L234Q/G236R (antibody)
# heavy: not shown
# light: B1 light
# notes: also called 2-30
# B16: anti-CD20 human IgG1 L234T/L235A/G236R (antibody)
# heavy: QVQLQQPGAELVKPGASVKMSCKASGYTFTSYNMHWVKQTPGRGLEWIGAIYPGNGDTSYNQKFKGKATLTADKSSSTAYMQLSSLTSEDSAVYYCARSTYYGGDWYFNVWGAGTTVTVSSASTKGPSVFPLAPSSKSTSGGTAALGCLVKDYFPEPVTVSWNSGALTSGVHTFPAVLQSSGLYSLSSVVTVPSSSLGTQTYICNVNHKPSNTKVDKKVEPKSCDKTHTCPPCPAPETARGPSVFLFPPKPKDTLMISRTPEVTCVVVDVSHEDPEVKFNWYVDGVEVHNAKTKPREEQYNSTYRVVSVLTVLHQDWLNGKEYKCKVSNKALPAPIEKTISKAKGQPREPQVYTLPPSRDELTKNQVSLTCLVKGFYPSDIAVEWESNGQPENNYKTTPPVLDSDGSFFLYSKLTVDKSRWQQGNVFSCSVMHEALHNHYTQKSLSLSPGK
# light: B1 light
# notes: also called 2-54; 1-152
# B17: anti-CD20 human IgG1 L234E/L235H/G236R (antibody)
# heavy: B1 heavy with D239H
# light: B1 light
# notes: also called 2-13; 1-36
# B18: anti-CD20 human IgG1 L234Q/L235D/G236R (antibody)
# heavy: B1 heavy with E238Q
# light: B1 light
# notes: also called 2-28
# B19: anti-CD20 human IgG1 L234Q/L235H/G236R (antibody)
# heavy: B1 heavy with E238Q, D239H
# light: B1 light
# notes: also called 2-29
# Biological target: T1, Histidine-tagged recombinant human FcγRI (CD64) (human, UniProt P12314 16-288, limits assumed)
# T1 construct: bought
# Test: SPR, His-FcγRI captured; mean;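 note: biacore T200 SPR at 25 °C, anti-His surface capturing FcγRI, Fc-variant antibodies injected at 100 µg/mL for 1 min, signal near injection end minus third buffer blank, three repeats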
# Procedure: Binding analysis was carried out by surface plasmon resonance at 25° C. using a Biacore® T200 instrument with Biacore® T200 control software. The sample compartment was held at 5° C. The running buffer (HBS-EP+) consisted of 0.01 M HEPES pH 7.4, containing 0.15 M NaCl, 3 mM EDTA, and 0.05% v/v Surfactant P20. Methods were run using the manufacturer's standard method wizards as described in the Biacore® T200 Instrument Handbook.
# The cell was activated by treatment with EDC/NHS for 7 min. The antibody was diluted to 10 μg/mL in 10 mM sodium acetate pH 5.0 and injected for 7 min at 5 μL/min. The flow cell was deactivated by injection of 1M ethanolamine for 7 min. This process was repeated in the absence of anti-his antibody on a separate flow cell to generate a reference surface. […] Samples of purified antibodies comprising variant Fc regions (1 mg/mL in PBS) were diluted with running buffer to 100 μg/mL and were injected for 1 min at 30 μL/min and allowed to disassociate for 2 min. Between each cycle, the chip was regenerated by injection of 10 mM glycine pH 3.0 for 0.5 min at a flow rate of 30 μL/min and recharged with a fresh injection of FcγRI. At the beginning of each experiment, three blank cycles were run, with buffer alone being injected instead of test sample. The average SPR signal (relative to the reference cell) was measured in a window approximately 8 to 13 seconds before the injection of test sample (baseline) and approximately 3 to 8 seconds before the end of injection (response). The response of the third of the blank (buffer) samples was subtracted from the response of each test sample in order to allow for any dissociation of the bound FcγRI giving a corrected response for each test sample. The whole experiment was repeated three times with the test samples being analysed in different orders each time.
row,Binder,"Corrected response (RU), Mean [RU]"
1,B1,12.3
2,B2,1.8
3,B3,5.3
4,B4,3.9
5,B5,28.7
6,B6,10.1
7,B7,-0.6
8,B8,16.2
9,B9,32.4
10,B10,5.3
11,B11,10.4
12,B12,4.8
13,B13,15.6
14,B14,5.9
15,B15,39.3
16,B16,5.4
17,B17,5.1
18,B18,3.8
19,B19,5.7

# Biological target: T1, Histidine-tagged recombinant human …
# Test: SPR, His-FcγRI captured; Expt 2;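 note: biacore T200 SPR at 25 °C, Fc-variant antibodies at 100 µg/mL flowed 1 min over anti-His-captured receptor, signal read near injection end minus third buffer blank; antibody analyte injected at 100 µg/mL for 1 min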
row,Binder,Corrected response (RU)
1,B1,9.4
2,B2,0.9
3,B3,5.3
4,B4,2.6
5,B5,21.6
6,B6,4.2
7,B7,-1
8,B8,17.3
9,B9,28.9
10,B10,5.2
11,B11,8.1
12,B12,4.2
13,B13,10.9
14,B14,5.5
15,B15,27
16,B16,4.8
17,B17,4.5
18,B18,2.7
19,B19,6.7

# Biological target: T1, Histidine-tagged recombinant human …
# Test: SPR, His-FcγRI captured; Expt 1;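 note: SPR at 25 °C on anti-His antibody chip capturing FcγRI, Fc-variant antibodies injected at 100 µg/mL for 1 min, signal near end of injection minus buffer blank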
row,Binder,Corrected response (RU)
1,B1,15.1
2,B2,0.4
3,B3,3.7
4,B4,-0.2
5,B5,33.7
6,B6,1.8
7,B7,-1.8
8,B8,7.2
9,B9,6
10,B10,4.4
11,B11,11.6
12,B12,3.9
13,B13,13.1
14,B14,4.8
15,B15,41.9
16,B16,4.3
17,B17,4.6
18,B18,4.3
19,B19,2.2

# Biological target: T1, Histidine-tagged recombinant human …
# Test: SPR, His-FcγRI captured; Expt 3;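 note: biacore T200 SPR at 25 °C, Fc-variant antibodies at 100 µg/mL flowed 1 min over anti-His-captured FcγRI, signal taken just before injection end minus a buffer blank cycle; antibody analyte injected at 100 µg/mL for 1 min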
row,Binder,Corrected response (RU)
1,B1,12.3
2,B2,4.2
3,B3,6.9
4,B4,9.4
5,B5,30.9
6,B6,24.4
7,B7,1.1
8,B8,24.2
9,B9,62.3
10,B10,6.1
11,B11,11.7
12,B12,6.4
13,B13,22.8
14,B14,7.4
15,B15,49
16,B16,7.2
17,B17,6.2
18,B18,4.4
19,B19,8.1
